# Positions count from the first letter of the chain named.
# B1: PRO1517 (scFv)
# chain: DIQMTQSPSSLSASVGDRVTITCQASEDIESYLAWYQQKPGKAPKLLIYRASTLAYGVPSRFSGSGSGTDFTLTISSLQPEDFATYYCLGSSYSTGSNIFGTGTKVTVLGGGGGSGGGGSGGGGSGGGGSEVQLVESGGGLVQPGGSLRLSCAASGFSSSSAHYMCWVRQAPGKGLEWIGCIYAGSRGSTYYASWAKGRFTISRDNSKNTVYLQMNSLRAEDTAVYYCARAAFVNRGVSWIWPYYFSLWGQGTLVTVSS
# B2: PRO1535 (scFv)
# chain: B1 chain with A43P, V132S, G180A, R204K, Y227F
# B3: PRO2198 (bispecific antibody)
# chain 1: DIQMTQSPSSLSARVGDRVTITCQASEDIESYLAWYQQKPGKAPKLLIYRASTLAYGVPSRFSGSGSGRDFTLTISSLQPEDFATYYCLGSSYSTGSNIFGQGTKVEIKRTVAAPSVFIFPPSDEQLKSGTASVVCLLNNFYPREAKVQWKVDNALQSGNSQESVTEQDSKDSTYSLSSTLTLSKADYEKHKVYACEVTHQGLSSPVTKSFNRGEC
# chain 2: not shown
# B4: PRO2199 (bispecific antibody)
# chain 1: not shown
# chain 2: B3 chain 1 with R14S, R69T
# Tests used:
# [1] = target: T1, IL-4R on HEK-Blue cells (human, UniProt P24394 26-825); assay: cell-based or functional assay
# T1 sequence (looked up): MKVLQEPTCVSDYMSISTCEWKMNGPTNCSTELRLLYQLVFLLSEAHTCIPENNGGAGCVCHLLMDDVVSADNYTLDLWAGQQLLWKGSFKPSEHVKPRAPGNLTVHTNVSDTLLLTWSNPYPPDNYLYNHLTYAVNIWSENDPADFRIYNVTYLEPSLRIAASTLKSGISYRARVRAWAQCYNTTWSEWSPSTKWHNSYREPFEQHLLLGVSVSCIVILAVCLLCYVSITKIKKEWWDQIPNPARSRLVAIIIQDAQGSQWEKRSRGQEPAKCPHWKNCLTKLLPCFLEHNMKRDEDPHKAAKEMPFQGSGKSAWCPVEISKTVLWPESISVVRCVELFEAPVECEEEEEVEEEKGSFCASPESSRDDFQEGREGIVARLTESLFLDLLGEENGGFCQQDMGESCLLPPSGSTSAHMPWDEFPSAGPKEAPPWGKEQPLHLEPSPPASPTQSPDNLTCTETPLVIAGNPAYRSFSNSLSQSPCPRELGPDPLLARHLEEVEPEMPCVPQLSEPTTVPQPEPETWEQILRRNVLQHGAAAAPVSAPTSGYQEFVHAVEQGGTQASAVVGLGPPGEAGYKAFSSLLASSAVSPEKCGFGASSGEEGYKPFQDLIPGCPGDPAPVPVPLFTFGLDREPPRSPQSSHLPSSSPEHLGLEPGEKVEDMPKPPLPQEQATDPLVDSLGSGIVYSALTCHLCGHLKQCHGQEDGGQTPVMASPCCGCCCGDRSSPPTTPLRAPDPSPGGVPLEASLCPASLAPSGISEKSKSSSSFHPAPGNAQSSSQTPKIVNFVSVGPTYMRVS
# [2] = target: T1, IL-4R on HEK-Blue cells; assay: cell-based or functional assay; remark: listed apart in the source
# [3] = target: T1, IL-4R on HEK-Blue cells; assay: cell-based or functional assay; remark: listed apart in the source
# [4] = target: T2, recombinant human IL-4R protein (ECD with His Tag, Sino Biological) (human, UniProt P24394 26-232); assay: SPR (Biacore T200); antibody captured via anti-human IgG-Fc, human IL-4R ECD-His as analyte; 1:1 Langmuir
# T2 construct: extracellular domain; also called human IL-4R ECD; not shown: His tag
# T2 sequence (looked up): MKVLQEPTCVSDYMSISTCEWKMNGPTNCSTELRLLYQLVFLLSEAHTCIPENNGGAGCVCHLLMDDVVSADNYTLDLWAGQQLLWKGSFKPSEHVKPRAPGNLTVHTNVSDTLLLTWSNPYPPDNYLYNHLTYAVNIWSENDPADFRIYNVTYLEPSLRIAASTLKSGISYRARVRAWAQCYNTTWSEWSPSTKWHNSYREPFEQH
# [5] = target: T3, recombinant cynomolgus monkey IL-4R (ECD with His-tag, Acro Biosystems) (cynomolgus monkey, UniProt A0A2K5V580 33-239); assay: SPR (Biacore T200); antibody captured via anti-human IgG-Fc, cynomolgus IL-4R ECD-His as analyte; 1:1 Langmuir
# T3 construct: extracellular domain; also called cynomolgus IL-4R; not shown: His tag
# T3 sequence: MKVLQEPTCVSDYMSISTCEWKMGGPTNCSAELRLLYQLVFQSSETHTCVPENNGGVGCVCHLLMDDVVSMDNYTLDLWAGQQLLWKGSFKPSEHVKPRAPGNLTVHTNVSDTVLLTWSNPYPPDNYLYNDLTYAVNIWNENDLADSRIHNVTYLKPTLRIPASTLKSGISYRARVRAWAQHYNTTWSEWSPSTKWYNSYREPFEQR
binder,measurement,setting,value
B1,Neutralization of hIL-4-induced signaling in reporter gene assay: IC50,[1],1.44 ng/mL
same,Neutralization of hIL-13-induced signaling in reporter gene assay: IC50,[1],1.83 ng/mL
B2,Neutralization of hIL-4-induced signaling in reporter gene assay: IC50,[1],1.15 ng/mL
same,Neutralization of hIL-13-induced signaling in reporter gene assay: IC50,[1],2.3 ng/mL
B3,neutralize human IL-4-induced signaling in the stat-6 reporter gene assay: Mean IC50 [pM],[2],23.9 pM
same,neutralize human IL-13 induced signaling in the stat-6 reporter gene assay: Mean IC50 [pM],[3],22.1 pM
B4,neutralize human IL-4-induced signaling in the stat-6 reporter gene assay: Mean IC50 [pM],[2],11.5 pM
same,neutralize human IL-13 induced signaling in the stat-6 reporter gene assay: IC50 [pM] (single analysis),[3],11.3 pM
same,Kd,[4],0.197 nM
same,koff,[4],5.76e-05 s⁻¹
same,kon,[4],293000 M⁻¹ s⁻¹
same,Kd,[5],0.0351 nM
same,koff,[5],3.44e-05 s⁻¹
same,kon,[5],980000 M⁻¹ s⁻¹
